Reference: the supplement of paper PMC9876800

Test system: peptide library, one residue held at a place counted from the S/T acceptor
Assay: relative phosphorylation of the sub-library (ratio to the mean residue at this position); higher = residue favoured
Procedure, shortened: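 Spots on streptavidin membranes were phosphorimaged and quantified by densitometry to measure phosphorylation of biotinylated degenerate peptide sub-libraries by purified recombinant kinases, human or orthologue constructs. The reactions ran in 384-well plates for 90 min under kinase-specific conditions, with peptides at 50 μM and 50 μM ATP spiked with γ-32P-ATP. Relative sub-library phosphorylation is the ratio to the mean residue at that position.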

TTBK2, construct: aa1-450, human, sequence (Q6IQ55 1-450, looked up): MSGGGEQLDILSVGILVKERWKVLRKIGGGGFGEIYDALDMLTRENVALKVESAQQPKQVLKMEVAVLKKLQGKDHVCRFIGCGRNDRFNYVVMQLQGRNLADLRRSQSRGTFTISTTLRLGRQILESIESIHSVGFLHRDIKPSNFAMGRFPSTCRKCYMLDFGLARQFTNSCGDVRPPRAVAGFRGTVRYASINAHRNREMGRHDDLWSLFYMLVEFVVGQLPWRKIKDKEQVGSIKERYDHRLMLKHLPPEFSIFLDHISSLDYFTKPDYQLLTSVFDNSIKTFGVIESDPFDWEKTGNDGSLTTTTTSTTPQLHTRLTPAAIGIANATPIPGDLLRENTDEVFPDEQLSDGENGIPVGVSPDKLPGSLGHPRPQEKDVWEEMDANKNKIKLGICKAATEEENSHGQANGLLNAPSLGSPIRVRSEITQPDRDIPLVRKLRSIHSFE
TLK2, construct: aa388-end, human, sequence (Q86UE8 388-772, looked up): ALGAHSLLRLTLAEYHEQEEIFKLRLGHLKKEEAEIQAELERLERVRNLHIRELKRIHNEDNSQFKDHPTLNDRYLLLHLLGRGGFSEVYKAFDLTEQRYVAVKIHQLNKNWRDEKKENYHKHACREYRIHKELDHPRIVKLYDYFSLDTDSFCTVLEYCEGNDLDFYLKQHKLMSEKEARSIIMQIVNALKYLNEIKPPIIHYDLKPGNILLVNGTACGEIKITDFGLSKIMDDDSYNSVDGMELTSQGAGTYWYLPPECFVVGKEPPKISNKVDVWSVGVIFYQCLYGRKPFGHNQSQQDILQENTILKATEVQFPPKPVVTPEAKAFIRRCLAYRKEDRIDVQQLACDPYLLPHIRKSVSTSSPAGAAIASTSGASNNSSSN

SRPK3, construct: Full length, human (from UniProt Q9UPE1)
relative phosphorylation
Settings	at +1	at +2	at +3	at +4	at -1	at -2	at -3	at -4	at -5
A fixed	0.905	1.14	0.591	0.865	1.08	1.46	0.594	0.904	0.946
D fixed	0.388	1.38	0.427	0.767	0.598	3.18	0.543	0.699	0.69
E fixed	0.501	1.15	0.377	0.67	0.731	1.53	0.451	0.818	0.718
F fixed	0.56	0.736	0.505	0.848	0.727	0.782	0.389	0.825	1.1
G fixed	0.767	0.962	0.719	1.03	1.05	0.997	0.429	0.929	1.05
H fixed	0.649	1.54	0.577	0.999	1.3	0.804	0.444	0.944	1.09
I fixed	0.877	0.777	0.413	0.739	0.696	0.471	0.351	0.865	0.92
K fixed	0.963	1.08	1.06	1.33	1.34	0.908	0.724	1.36	1.33
L fixed	1.09	0.601	0.41	0.846	0.924	0.551	0.346	0.791	0.785
M fixed	1.01	0.796	0.467	0.899	1.02	0.666	0.403	0.859	0.906
N fixed	0.674	1.31	0.592	1.04	0.833	0.938	0.417	0.83	0.861
P fixed	3.97	0.922	1.39	1.02	1.58	0.762	0.387	0.99	0.74
Q fixed	0.926	0.905	0.635	1.07	1.07	0.729	0.568	0.952	0.777
R fixed	1.48	1.35	7.34	2.07	1.76	1.31	9.8	2.63	2.11
V fixed	1.13	0.909	0.456	0.745	0.898	0.547	0.34	0.852	0.897
W fixed	0.574	0.701	0.541	1.18	0.579	0.638	0.39	0.881	0.977
Y fixed	0.537	0.734	0.496	0.876	0.818	0.723	0.429	0.867	1.1
pThr fixed	0.601	1.02	0.572	0.874	0.69	1.01	0.644	1.13	0.863
pTyr fixed	0.746	0.876	0.702	0.924	1.38	1.79	1.29	2.21	1.15

TLK2, construct: aa388-end, human (from UniProt Q86UE8)
relative phosphorylation
Settings	at +1	at +2	at +3	at +4	at -1	at -2	at -3	at -4	at -5
A fixed	0.501	0.95	1.3	1.23	1.13	1.14	1.07	1.1	1.22
D fixed	0.281	1.07	1.01	1.06	0.949	2.24	2	1.67	1.91
E fixed	0.329	0.512	1.33	0.879	0.751	3.21	1.46	1.68	1.45
F fixed	0.533	1.32	1.19	1.26	1.04	0.553	0.674	0.878	0.801
G fixed	0.36	1.69	1.69	1.24	0.72	1.69	1.42	1.27	1.19
H fixed	0.799	1.45	0.932	0.899	1.6	1.05	0.979	1.07	1.05
I fixed	0.995	0.768	0.583	0.843	0.542	0.435	0.531	0.668	0.621
K fixed	0.624	0.451	0.52	0.603	0.95	0.502	0.702	0.703	0.879
L fixed	1.34	0.873	0.654	0.867	0.61	0.418	0.637	0.678	0.663
M fixed	2.11	1.27	0.823	0.913	0.862	0.592	0.77	0.857	0.737
N fixed	2.41	0.671	0.682	0.692	1.29	1.22	1.26	1.19	1.08
P fixed	0.225	1.03	1.66	1.79	0.634	0.77	1.36	1.17	1
Q fixed	2.67	1.19	0.765	0.782	1.23	1.06	0.972	0.852	0.865
R fixed	1.53	0.482	0.483	0.506	0.827	0.499	0.743	0.674	0.814
V fixed	1.06	0.675	0.814	0.944	0.807	0.495	0.584	0.684	0.72
W fixed	0.686	1.62	1.42	1.35	1.58	0.5	0.953	1.06	1.1
Y fixed	0.543	0.974	1.13	1.13	1.48	0.638	0.879	0.803	0.894
pThr fixed	0.552	0.633	1.09	1.41	0.434	0.883	1.29	1.31	1.31
pTyr fixed	0.65	1.52	1.94	1.76	1.4	2.55	1.35	1.36	1.4

TSSK2, construct: Full length, human (from UniProt Q96PF2)
relative phosphorylation
Settings	at +1	at +2	at +3	at +4	at -1	at -2	at -3	at -4	at -5
A fixed	0.97	0.852	0.804	0.774	1.18	1.86	1.24	1.3	1.2
D fixed	0.871	0.578	1.44	0.8	0.771	0.379	0.466	0.655	0.247
E fixed	1.25	0.793	0.998	0.629	0.932	0.42	0.671	1.04	0.216
F fixed	1.06	1.27	1.37	1.43	0.685	0.699	0.589	0.583	0.882
G fixed	0.625	0.388	0.688	0.663	0.74	0.939	1.19	1.22	0.439
H fixed	1.05	2.95	1.53	0.822	0.874	0.952	0.933	1.12	0.518
I fixed	0.683	1.3	0.642	1.47	0.673	0.954	0.734	0.816	1.75
K fixed	1.41	0.47	1.04	0.766	1.68	2.3	1.86	1.99	0.569
L fixed	0.92	1.27	0.834	1.98	0.847	0.55	0.67	0.877	3.08
M fixed	0.965	1.1	0.944	1.51	0.893	0.725	0.668	1.19	1.32
N fixed	1.25	0.861	1.49	0.942	0.96	1.17	0.824	0.829	0.393
P fixed	0.143	0.438	0.324	0.846	1.72	0.513	1.27	0.348	1.34
Q fixed	1.31	1.09	0.95	0.882	1.41	1.08	0.935	0.849	0.71
R fixed	1.78	0.574	1.11	0.648	1.49	1.77	2.96	1.85	0.952
V fixed	0.867	1.02	0.677	1.25	0.763	1.47	0.802	0.921	2.15
W fixed	0.789	0.915	1.28	0.941	0.6	0.452	0.598	0.594	0.541
Y fixed	1.06	1.13	0.887	0.646	0.788	0.779	0.587	0.808	0.69
pThr fixed	1.02	0.78	0.485	0.581	0.426	0.262	0.804	0.734	0.503
pTyr fixed	0.925	0.79	0.814	0.556	0.831	0.284	0.641	0.428	0.752

TTBK2, construct: aa1-450, human (from UniProt Q6IQ55)
relative phosphorylation
Settings	at +1	at +2	at +3	at +4	at -1	at -2	at -3	at -4	at -5
A fixed	0.693	1.88	1.11	1.02	0.912	1.25	0.986	0.998	1.03
D fixed	0.298	0.221	0.968	0.919	0.604	1.91	1.38	1.34	0.944
E fixed	0.913	0.22	1.42	0.928	0.64	1.36	1.2	1.08	0.905
F fixed	1.38	0.907	1.07	0.85	0.951	0.802	0.844	1.11	1.08
G fixed	0.29	0.615	1.21	1.17	0.563	0.964	1.19	1.18	1.28
H fixed	0.878	1.48	1.09	0.983	1.05	0.867	1.18	0.996	1.03
I fixed	1.72	1.07	1.01	0.853	1.24	0.742	0.949	0.881	0.99
K fixed	0.739	0.913	0.707	0.996	1.32	0.67	0.884	1.12	1.15
L fixed	1.5	0.733	1.03	0.822	1.12	1.29	0.807	0.811	0.699
M fixed	1.52	1.38	1.1	1	1.14	0.853	0.972	0.859	0.827
N fixed	0.329	0.553	0.594	0.92	0.942	1.07	1.04	0.841	0.847
P fixed	0.115	0.31	0.495	1.24	0.805	1.35	0.834	0.837	0.981
Q fixed	1.03	0.57	1	0.858	0.741	0.994	0.879	0.818	0.771
R fixed	1.1	1.8	0.801	1.29	1.71	0.743	1.13	1.06	1.41
V fixed	1.42	0.908	1.07	0.75	1.12	0.81	0.75	0.898	0.937
W fixed	1.45	1.91	1.1	1.4	0.93	0.69	0.885	1.08	0.946
Y fixed	1.63	1.54	1.23	0.998	1.22	0.643	1.09	1.1	1.18
pThr fixed	0.576	0.426	0.831	0.97	0.7	2.61	1.78	1.55	1.02
pTyr fixed	1.7	5.77	1.16	0.752	1.02	2.59	2.62	1.84	1.77
